# Results: patent US20230219996A1
# Experiments:
# [1] = biological target: SARS-CoV-2 spike (Wuhan, wild-type) (SARS-CoV-2) (UniProt P0DTC2); test: MSD V-PLEX ACE2 kit, sVNT, positive control; competitor ACE2 (NHP study)
# [2] = biological target: SARS-CoV-2 spike (Wuhan, wild-type) (SARS-CoV-2) (UniProt P0DTC2); test: MSD V-PLEX ACE2 kit, sVNT, positive control; competitor ACE2 (mouse study)
substance,measurement,setting,value
ACE2 Calibration Reagent (included in the MSD kit),ACE2-binding percent inhibition,[1],100%
same,ACE2-binding percent inhibition,[2],100%
